Laboratory results: patent US20140206609A1 (Sanofi, published 2014)
*1 amine or outer side, *2 acyl side, *3 side chain or, on linkers, in order; H or OH if unused. Where no end group is shown, it is not given here. Side-chain parts run from the residue outwards. [ ]: non-standard residue; d: D form. The star is where a group is joined. γGlu = O=C(O)[C@H](CCC(=O)[*:2])N[*:1]; Palmitoyl = CCCCCCCCCCCCCCCC(=O)*; Aib = CC(C)(N)C(=O)O

T1: human GIP receptor (human, UniProt P48546 22-466)
T1 sequence (looked up): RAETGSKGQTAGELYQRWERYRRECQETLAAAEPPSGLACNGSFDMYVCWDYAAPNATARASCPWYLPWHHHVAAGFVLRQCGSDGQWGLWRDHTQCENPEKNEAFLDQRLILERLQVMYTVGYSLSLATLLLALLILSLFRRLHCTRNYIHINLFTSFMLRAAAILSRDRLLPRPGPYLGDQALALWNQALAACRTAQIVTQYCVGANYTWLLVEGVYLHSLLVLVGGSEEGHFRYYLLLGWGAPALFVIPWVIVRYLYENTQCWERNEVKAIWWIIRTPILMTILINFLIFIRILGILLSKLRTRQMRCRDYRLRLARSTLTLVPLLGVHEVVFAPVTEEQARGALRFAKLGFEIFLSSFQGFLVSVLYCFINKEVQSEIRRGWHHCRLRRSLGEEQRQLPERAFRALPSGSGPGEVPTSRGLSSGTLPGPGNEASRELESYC


How the values were obtained:
Assay in all cases: cell-based or functional assay
human GLP-1 receptor = human GLP-1 receptor (human, UniProt P43220 24-463)
human GIP receptor = biological target: T1, human GIP receptor
human glucagon receptor = human glucagon receptor (human, UniProt P47871 26-477)
Sequence of human glucagon receptor (P47871 26-477): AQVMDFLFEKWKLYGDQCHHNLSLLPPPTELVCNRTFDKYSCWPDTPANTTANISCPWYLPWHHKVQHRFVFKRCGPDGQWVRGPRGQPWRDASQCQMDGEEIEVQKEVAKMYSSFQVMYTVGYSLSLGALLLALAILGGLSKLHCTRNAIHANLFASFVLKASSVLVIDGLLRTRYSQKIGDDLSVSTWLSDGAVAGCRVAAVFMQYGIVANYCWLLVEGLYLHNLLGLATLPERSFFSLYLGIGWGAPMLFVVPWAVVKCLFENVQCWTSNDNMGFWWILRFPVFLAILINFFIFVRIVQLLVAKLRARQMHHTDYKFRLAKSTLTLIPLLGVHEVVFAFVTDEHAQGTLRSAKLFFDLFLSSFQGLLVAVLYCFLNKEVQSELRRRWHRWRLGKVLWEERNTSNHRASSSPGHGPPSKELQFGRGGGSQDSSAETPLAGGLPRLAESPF

Binder | EC50 hGLP-1 R [pM] (human GLP-1 receptor) | EC50 hGIP R [pM] (human GIP receptor) | EC50 hGLUC R [pM] (human glucagon receptor)
Y[Aib]QGTFTSDLSIQK([γGlu-Palmitoyl])DSRAAQDFIEWLKAGGPSSGAPPPS-NH2 (N-terminus assumed; SMILES CCCCCCCCCCCCCCCC(=O)N[C@@H](CCC(=O)NCCCC[C@H](NC(=O)[C@H](CCC(N)=O)NC(=O)[C@@H](NC(=O)[C@H](CO)NC(=O)[C@H](CC(C)C)NC(=O)[C@H](CC(=O)O)NC(=O)[C@H](CO)NC(=O)[C@@H](NC(=O)[C@H](Cc1ccccc1)NC(=O)[C@@H](NC(=O)CNC(=O)[C@H](CCC(N)=O)NC(=O)C(C)(C)NC(=O)[C@@H](N)Cc1ccc(O)cc1)[C@@H](C)O)[C@@H](C)O)[C@@H](C)CC)C(=O)N[C@@H](CC(=O)O)C(=O)N[C@@H](CO)C(=O)N[C@@H](CCCNC(=N)N)C(=O)N[C@@H](C)C(=O)N[C@@H](C)C(=O)N[C@@H](CCC(N)=O)C(=O)N[C@@H](CC(=O)O)C(=O)N[C@@H](Cc1ccccc1)C(=O)N[C@H](C(=O)N[C@@H](CCC(=O)O)C(=O)N[C@@H](Cc1c[nH]c2ccccc12)C(=O)N[C@@H](CC(C)C)C(=O)N[C@@H](CCCCN)C(=O)N[C@@H](C)C(=O)NCC(=O)NCC(=O)N1CCC[C@H]1C(=O)N[C@@H](CO)C(=O)N[C@@H](CO)C(=O)NCC(=O)N[C@@H](C)C(=O)N1CCC[C@H]1C(=O)N1CCC[C@H]1C(=O)N1CCC[C@H]1C(=O)N[C@@H](CO)C(N)=O)[C@@H](C)CC)C(=O)O) [SEQ ID NO: 37] | 8.9 pM | 21.2 pM | 32 pM
Y[Aib]EGTFTSDLSIQK([γGlu-Palmitoyl])EKRAA[Aib]EFIEWLKAGGPSSGAPPPS-NH2 (N-terminus assumed; SMILES CCCCCCCCCCCCCCCC(=O)N[C@@H](CCC(=O)NCCCC[C@H](NC(=O)[C@H](CCC(N)=O)NC(=O)[C@@H](NC(=O)[C@H](CO)NC(=O)[C@H](CC(C)C)NC(=O)[C@H](CC(=O)O)NC(=O)[C@H](CO)NC(=O)[C@@H](NC(=O)[C@H](Cc1ccccc1)NC(=O)[C@@H](NC(=O)CNC(=O)[C@H](CCC(=O)O)NC(=O)C(C)(C)NC(=O)[C@@H](N)Cc1ccc(O)cc1)[C@@H](C)O)[C@@H](C)O)[C@@H](C)CC)C(=O)N[C@@H](CCC(=O)O)C(=O)N[C@@H](CCCCN)C(=O)N[C@@H](CCCNC(=N)N)C(=O)N[C@@H](C)C(=O)N[C@@H](C)C(=O)NC(C)(C)C(=O)N[C@@H](CCC(=O)O)C(=O)N[C@@H](Cc1ccccc1)C(=O)N[C@H](C(=O)N[C@@H](CCC(=O)O)C(=O)N[C@@H](Cc1c[nH]c2ccccc12)C(=O)N[C@@H](CC(C)C)C(=O)N[C@@H](CCCCN)C(=O)N[C@@H](C)C(=O)NCC(=O)NCC(=O)N1CCC[C@H]1C(=O)N[C@@H](CO)C(=O)N[C@@H](CO)C(=O)NCC(=O)N[C@@H](C)C(=O)N1CCC[C@H]1C(=O)N1CCC[C@H]1C(=O)N1CCC[C@H]1C(=O)N[C@@H](CO)C(N)=O)[C@@H](C)CC)C(=O)O) [SEQ ID NO: 36] | 3.4 pM | 6.4 pM | 5780 pM
Y[Aib]EGTFTSDLSIQK([γGlu-Palmitoyl])ESRAA[Aib]EFIEWLKAGGPSSGAPPPS-NH2 (N-terminus assumed; SMILES CCCCCCCCCCCCCCCC(=O)N[C@@H](CCC(=O)NCCCC[C@H](NC(=O)[C@H](CCC(N)=O)NC(=O)[C@@H](NC(=O)[C@H](CO)NC(=O)[C@H](CC(C)C)NC(=O)[C@H](CC(=O)O)NC(=O)[C@H](CO)NC(=O)[C@@H](NC(=O)[C@H](Cc1ccccc1)NC(=O)[C@@H](NC(=O)CNC(=O)[C@H](CCC(=O)O)NC(=O)C(C)(C)NC(=O)[C@@H](N)Cc1ccc(O)cc1)[C@@H](C)O)[C@@H](C)O)[C@@H](C)CC)C(=O)N[C@@H](CCC(=O)O)C(=O)N[C@@H](CO)C(=O)N[C@@H](CCCNC(=N)N)C(=O)N[C@@H](C)C(=O)N[C@@H](C)C(=O)NC(C)(C)C(=O)N[C@@H](CCC(=O)O)C(=O)N[C@@H](Cc1ccccc1)C(=O)N[C@H](C(=O)N[C@@H](CCC(=O)O)C(=O)N[C@@H](Cc1c[nH]c2ccccc12)C(=O)N[C@@H](CC(C)C)C(=O)N[C@@H](CCCCN)C(=O)N[C@@H](C)C(=O)NCC(=O)NCC(=O)N1CCC[C@H]1C(=O)N[C@@H](CO)C(=O)N[C@@H](CO)C(=O)NCC(=O)N[C@@H](C)C(=O)N1CCC[C@H]1C(=O)N1CCC[C@H]1C(=O)N1CCC[C@H]1C(=O)N[C@@H](CO)C(N)=O)[C@@H](C)CC)C(=O)O) [SEQ ID NO: 35] | 6.9 pM | 7.3 pM | 39100 pM
Y[Aib]EGTFTSDLSIQK([γGlu-Palmitoyl])DKRAAQDFIEWLKAGGPSSGAPPPS-NH2 (N-terminus assumed; SMILES CCCCCCCCCCCCCCCC(=O)N[C@@H](CCC(=O)NCCCC[C@H](NC(=O)[C@H](CCC(N)=O)NC(=O)[C@@H](NC(=O)[C@H](CO)NC(=O)[C@H](CC(C)C)NC(=O)[C@H](CC(=O)O)NC(=O)[C@H](CO)NC(=O)[C@@H](NC(=O)[C@H](Cc1ccccc1)NC(=O)[C@@H](NC(=O)CNC(=O)[C@H](CCC(=O)O)NC(=O)C(C)(C)NC(=O)[C@@H](N)Cc1ccc(O)cc1)[C@@H](C)O)[C@@H](C)O)[C@@H](C)CC)C(=O)N[C@@H](CC(=O)O)C(=O)N[C@@H](CCCCN)C(=O)N[C@@H](CCCNC(=N)N)C(=O)N[C@@H](C)C(=O)N[C@@H](C)C(=O)N[C@@H](CCC(N)=O)C(=O)N[C@@H](CC(=O)O)C(=O)N[C@@H](Cc1ccccc1)C(=O)N[C@H](C(=O)N[C@@H](CCC(=O)O)C(=O)N[C@@H](Cc1c[nH]c2ccccc12)C(=O)N[C@@H](CC(C)C)C(=O)N[C@@H](CCCCN)C(=O)N[C@@H](C)C(=O)NCC(=O)NCC(=O)N1CCC[C@H]1C(=O)N[C@@H](CO)C(=O)N[C@@H](CO)C(=O)NCC(=O)N[C@@H](C)C(=O)N1CCC[C@H]1C(=O)N1CCC[C@H]1C(=O)N1CCC[C@H]1C(=O)N[C@@H](CO)C(N)=O)[C@@H](C)CC)C(=O)O) [SEQ ID NO: 31] | 6 pM | 6.5 pM | 3080 pM
Y[Aib]EGTFTSDLSIQK([γGlu-Palmitoyl])EKRAAQEFIEWLKAGGPSSGAPPPS-NH2 (N-terminus assumed; SMILES CCCCCCCCCCCCCCCC(=O)N[C@@H](CCC(=O)NCCCC[C@H](NC(=O)[C@H](CCC(N)=O)NC(=O)[C@@H](NC(=O)[C@H](CO)NC(=O)[C@H](CC(C)C)NC(=O)[C@H](CC(=O)O)NC(=O)[C@H](CO)NC(=O)[C@@H](NC(=O)[C@H](Cc1ccccc1)NC(=O)[C@@H](NC(=O)CNC(=O)[C@H](CCC(=O)O)NC(=O)C(C)(C)NC(=O)[C@@H](N)Cc1ccc(O)cc1)[C@@H](C)O)[C@@H](C)O)[C@@H](C)CC)C(=O)N[C@@H](CCC(=O)O)C(=O)N[C@@H](CCCCN)C(=O)N[C@@H](CCCNC(=N)N)C(=O)N[C@@H](C)C(=O)N[C@@H](C)C(=O)N[C@@H](CCC(N)=O)C(=O)N[C@@H](CCC(=O)O)C(=O)N[C@@H](Cc1ccccc1)C(=O)N[C@H](C(=O)N[C@@H](CCC(=O)O)C(=O)N[C@@H](Cc1c[nH]c2ccccc12)C(=O)N[C@@H](CC(C)C)C(=O)N[C@@H](CCCCN)C(=O)N[C@@H](C)C(=O)NCC(=O)NCC(=O)N1CCC[C@H]1C(=O)N[C@@H](CO)C(=O)N[C@@H](CO)C(=O)NCC(=O)N[C@@H](C)C(=O)N1CCC[C@H]1C(=O)N1CCC[C@H]1C(=O)N1CCC[C@H]1C(=O)N[C@@H](CO)C(N)=O)[C@@H](C)CC)C(=O)O) [SEQ ID NO: 34] | 4.6 pM | 22.2 pM | 11600 pM
Y[Aib]EGTFTSDLSIQK([γGlu-Palmitoyl])EKRAAQDFIEWLKAGGPSSGAPPPS-NH2 (N-terminus assumed; SMILES CCCCCCCCCCCCCCCC(=O)N[C@@H](CCC(=O)NCCCC[C@H](NC(=O)[C@H](CCC(N)=O)NC(=O)[C@@H](NC(=O)[C@H](CO)NC(=O)[C@H](CC(C)C)NC(=O)[C@H](CC(=O)O)NC(=O)[C@H](CO)NC(=O)[C@@H](NC(=O)[C@H](Cc1ccccc1)NC(=O)[C@@H](NC(=O)CNC(=O)[C@H](CCC(=O)O)NC(=O)C(C)(C)NC(=O)[C@@H](N)Cc1ccc(O)cc1)[C@@H](C)O)[C@@H](C)O)[C@@H](C)CC)C(=O)N[C@@H](CCC(=O)O)C(=O)N[C@@H](CCCCN)C(=O)N[C@@H](CCCNC(=N)N)C(=O)N[C@@H](C)C(=O)N[C@@H](C)C(=O)N[C@@H](CCC(N)=O)C(=O)N[C@@H](CC(=O)O)C(=O)N[C@@H](Cc1ccccc1)C(=O)N[C@H](C(=O)N[C@@H](CCC(=O)O)C(=O)N[C@@H](Cc1c[nH]c2ccccc12)C(=O)N[C@@H](CC(C)C)C(=O)N[C@@H](CCCCN)C(=O)N[C@@H](C)C(=O)NCC(=O)NCC(=O)N1CCC[C@H]1C(=O)N[C@@H](CO)C(=O)N[C@@H](CO)C(=O)NCC(=O)N[C@@H](C)C(=O)N1CCC[C@H]1C(=O)N1CCC[C@H]1C(=O)N1CCC[C@H]1C(=O)N[C@@H](CO)C(N)=O)[C@@H](C)CC)C(=O)O) [SEQ ID NO: 33] | 6.4 pM | 9.1 pM | 12900 pM
